# From patent US20130040853A1, “Context Specific Genetic Screen Platform to Aid in Gene Discovery and Target Validation” (Dana-Farber Cancer Institute Inc., priority 2010, published 2013)
# What was measured:
# [1] = tested on: HMEL-BRAF^V600E melanocytes; experiment: In vivo functional genetic screen and secondary validation: kinase-transduced HMEL cells implanted in nude mice; set-up: species or system human; settings: for Tumorigenicity in vivo: WT or mutant kinase expressed individually
# From the text: A ‘cancer-kinase’ library was constructed containing sequence-verified ORFs in a lentiviral vector for 110 of the 120 kinases reported to sustain somatic driver mutations in diverse human cancers. This library was pooled and introduced into a human HMEL-BRAF^V600E melanocyte model system engineered with BRAF^V600E and TERT as well as p53DD and CDK4-R24C to inactivate the […] pathways, respectively. The HMEL-BRAF^V600E melanocyte profile, while representing the most common clinically-definable genetic profile in human melanoma, is insufficient to drive efficient melanoma formation following orthotopic transplantation in the skin (penetrance of 10% and latency of 26 weeks). In contrast, 40% of HMEL-BRAF^V600E melanocytes transduced with the cancer kinase pools developed tumors with an average latency of 13 weeks (range 10-18 weeks).
# In vivo functional genetic screens: Lentivirus were prepared by co-transfecting 293T cells with individual vector backbones and standard virus packaging systems for subsequent collection of viral supernatants. Viral supernatants were then pooled randomly to generate 8 pools of high-titer lentiviral stocks. HMEL cells were transduced with either GFP control lentivirus or each representative lentiviral pool in the presence of 8 ug/ml polybrene (Company). Infected cells were expanded, mixed 1:1 with Matrigel (BD Bioscience) and then subcutaneously implanted in female nude animals (Taconic) at 1×10^6 cells per site on both flanks. Primary INK4A/ARF−/−, PTEN−/− murine astrocytes were transduced with either GFP control lentivirus or each representative lentiviral pool in the presence of 8 ug/ml polybrene (Company). Infected cells were expanded implanted into the brain parenchyma of female SCID mice (Charles River). Briefly, SCID mice were anesthetized and placed into a stereotactic apparatus equipped with a Z axis (Stoelting). A small hole was bored in the skull 0.5 mm anterior and 3.0 mm lateral to the bregma using a dental drill. Twenty thousand cells in Hank's Buffered Salt Solution were injected into the right caudate nucleus 2 mm below the surface of the brain using a 10-ul Hamilton syringe with an unbeveled 30 gauge needle. The scalp was closed using a 9-mm Autoclip Applier. Animals were followed daily for the development of subQ tumors or signs of neurological deficits. Animals were sacrifice, tumors were harvested, genomic DNA was prepared and kinases expressed in each tumor identified using PCR sequencing using plasmid specific CMV and V5 primers. Expression of each kinase was further validated by western blot analysis. Kinases expressed in each tumor were then enlisted into secondary validation screens in which stable HMEL or mouse astrocyte lines were generated expressing each kinase individually. Cells were again expanded and then implanted in female nude or SCID animals. All mice were housed and treated in accordance with protocols approved by the institutional care and use committees for animal research at the Dana-Farber Cancer Institute.
# cJUN phosphorylation = experiment: JNK Kinase Assay (WT and mutant kinases immunoprecipitated from HMEL cells); format: biochemical, human; settings: as reported by level of cJUN phosphorylation; for MAP2K4/7 first incubated with inactive JNK2
Molecule,Tumorigenicity in vivo [1],Kinase Activity (cJUN phosphorylation),other results
"MAP2K4 WT: wild type MAP2K4 kinase ORF expressed from lentiviral vector in HMEL cells (protein, UniProt P45985 1-399, looked up, full-length, wild type MAP2K4 kinase ORF expressed from lentiviral vector in HMEL cells) MAAPSPSGGGGSGGGSGSGTPGPVGSPAPGHPAVSSMQGKRKALKLNFANPPFKSTARFTLNPNPTGVQNPHIERLRTHSIESSGKLKISPEQHWDFTAEDLKDLGEIGRGAYGSVNKMVHKPSGQIMAVKRIRSTVDEKEQKQLLMDLDVVMRSSDCPYIVQFYGALFREGDCWICMELMSTSFDKFYKYVYSVLDDVIPEEILGKITLATVKALNHLKENLKIIHRDIKPSNILLDRSGNIKLCDFGISGQLVDSIAKTRDAGCRPYMAPERIDPSASRQGYDVRSDVWSLGITLYELATGRFPYPKWNSVFDQLTQVVKGDPPQLSNSEEREFSPSFINFVNLCLTKDESKRPKYKELLKHPFILMYEERAVEVACYVCKILDQMPATPSSPMYVD",YES,1X,"tumor penetrance ([1]; secondary validation, kinase transduced individually into HMEL-BRAF^V600E melanocytes): 30%"
"JNK1 WT: wild type MAPK8/JNK1 kinase ORF expressed in HMEL cells (protein, UniProt P45983 1-427, looked up) Mitogen-activated protein …: MSRSKRDNNFYSVEIGDSTFTVLKRYQNLKPIGSGAQGIVCAAYDAILERNVAIKKLSRPFQNQTHAKRAYRELVLMKCVNHKNIIGLLNVFTPQKSLEEFQDVYIVMELMDANLCQVIQMELDHERMSYLLYQMLCGIKHLHSAGIIHRDLKPSNIVVKSDCTLKILDFGLARTAGTSFMMTPYVVTRYYRAPEVILGMGYKENVDLWSVGCIMGEMVCHKILFPGRDYIDQWNKVIEQLGTPCPEFMKKLQPTVRTYVENRPKYAGYSFEKLFPDVLFPADSEHNKLKASQARDLLSKMLVIDASKRISVDEALQHPYINVWYDPSEAEAPPPKIPDKQLDEREHTIEEWKELIYKEVMDLEERTKNGVIRGQPSPLGAAVINGSQHPSSSSSVNDVSSMSTDPTLASDTDSSLEAAAGPLGCCR",YES,–,tumor generation individually in secondary HMEL screens ([1]; kinase transduced individually): did not generate tumors
"MAP2K4 p.S251N: MAP2K4 somatic mutant identified in a melanoma (protein, UniProt P45985 2-399, looked up, variant S251N) Dual specificity …: AAPSPSGGGGSGGGSGSGTPGPVGSPAPGHPAVSSMQGKRKALKLNFANPPFKSTARFTLNPNPTGVQNPHIERLRTHSIESSGKLKISPEQHWDFTAEDLKDLGEIGRGAYGSVNKMVHKPSGQIMAVKRIRSTVDEKEQKQLLMDLDVVMRSSDCPYIVQFYGALFREGDCWICMELMSTSFDKFYKYVYSVLDDVIPEEILGKITLATVKALNHLKENLKIIHRDIKPSNILLDRSGNIKLCDFGINGQLVDSIAKTRDAGCRPYMAPERIDPSASRQGYDVRSDVWSLGITLYELATGRFPYPKWNSVFDQLTQVVKGDPPQLSNSEEREFSPSFINFVNLCLTKDESKRPKYKELLKHPFILMYEERAVEVACYVCKILDQMPATPSSPMYVD",–,1X,–
"MAP2K4 p.N2341: MAP2K4 somatic driver mutant, observed in ovarian serous carcinoma (protein, UniProt P45985 2-399, looked up, variant N234I) Dual specificity …: AAPSPSGGGGSGGGSGSGTPGPVGSPAPGHPAVSSMQGKRKALKLNFANPPFKSTARFTLNPNPTGVQNPHIERLRTHSIESSGKLKISPEQHWDFTAEDLKDLGEIGRGAYGSVNKMVHKPSGQIMAVKRIRSTVDEKEQKQLLMDLDVVMRSSDCPYIVQFYGALFREGDCWICMELMSTSFDKFYKYVYSVLDDVIPEEILGKITLATVKALNHLKENLKIIHRDIKPSIILLDRSGNIKLCDFGISGQLVDSIAKTRDAGCRPYMAPERIDPSASRQGYDVRSDVWSLGITLYELATGRFPYPKWNSVFDQLTQVVKGDPPQLSNSEEREFSPSFINFVNLCLTKDESKRPKYKELLKHPFILMYEERAVEVACYVCKILDQMPATPSSPMYVD",–,2.5X^,–
"MAP2K7 p.R162C: MAP2K7 somatic mutant, observed in colorectal adenocarcinoma (protein, UniProt O14733 2-419, looked up, variant R162C) Dual specificity …: AASSLEQKLSRLEAKLKQENREARRRIDLNLDISPQRPRPTLQLPLANDGGSRSPSSESSPQHPTPPARPRHMLGLPSTLFTPRSMESIEIDQKLQEIMKQTGYLTIGGQRYQAEINDLENLGEMGSGTCGQVWKMRFRKTGHVIAVKQMRRSGNKEENKCILMDLDVVLKSHDCPYIVQCFGTFITNTDVFIAMELMGTCAEKLKKRMQGPIPERILGKMTVAIVKALYYLKEKHGVIHRDVKPSNILLDERGQIKLCDFGISGRLVDSKAKTRSAGCAAYMAPERIDPPDPTKPDYDIRADVWSLGISLVELATGQFPYKNCKTDFEVLTKVLQEEPPLLPGHMGFSGDFQSFVKDCLTKDHRKRPKYNKLLEHSFIKRYETLEVDVASWFKDVMAKTESPRTSGVLSQPHLPFFR",–,1X,–
"MAP2K7 p.R162H: MAP2K7 somatic mutant, observed in colorectal adenocarcinoma (protein, UniProt O14733 2-419, looked up, variant R162H) Dual specificity …: AASSLEQKLSRLEAKLKQENREARRRIDLNLDISPQRPRPTLQLPLANDGGSRSPSSESSPQHPTPPARPRHMLGLPSTLFTPRSMESIEIDQKLQEIMKQTGYLTIGGQRYQAEINDLENLGEMGSGTCGQVWKMRFRKTGHVIAVKQMRRSGNKEENKHILMDLDVVLKSHDCPYIVQCFGTFITNTDVFIAMELMGTCAEKLKKRMQGPIPERILGKMTVAIVKALYYLKEKHGVIHRDVKPSNILLDERGQIKLCDFGISGRLVDSKAKTRSAGCAAYMAPERIDPPDPTKPDYDIRADVWSLGISLVELATGQFPYKNCKTDFEVLTKVLQEEPPLLPGHMGFSGDFQSFVKDCLTKDHRKRPKYNKLLEHSFIKRYETLEVDVASWFKDVMAKTESPRTSGVLSQPHLPFFR",–,1X,–
"JNK2 p.V13M: JNK2 somatic mutant, observed in colorectal adenocarcinoma (protein, UniProt P45984 1-424, looked up, variant V13M) Mitogen-activated protein …: MSDSKCDSQFYSMQVADSTFTVLKRYQQLKPIGSGAQGIVCAAFDTVLGINVAVKKLSRPFQNQTHAKRAYRELVLLKCVNHKNIISLLNVFTPQKTLEEFQDVYLVMELMDANLCQVIHMELDHERMSYLLYQMLCGIKHLHSAGIIHRDLKPSNIVVKSDCTLKILDFGLARTACTNFMMTPYVVTRYYRAPEVILGMGYKENVDIWSVGCIMGELVKGCVIFQGTDHIDQWNKVIEQLGTPSAEFMKKLQPTVRNYVENRPKYPGIKFEELFPDWIFPSESERDKIKTSQARDLLSKMLVIDPDKRISVDEALRHPYITVWYDPAEAEAPPPQIYDAQLEEREHAIEEWKELIYKEVMDWEERSKNGVVKDQPSDAAVSSNATPSQSSSINDISSMSTEQTLASDTDSSLDASTGPLEGCR",YES,–,–
"JNK2 p.K56N: JNK2 somatic mutant, observed in head & neck squamous cell (protein, UniProt P45984 1-424, looked up, variant K56N) Mitogen-activated protein …: MSDSKCDSQFYSVQVADSTFTVLKRYQQLKPIGSGAQGIVCAAFDTVLGINVAVKNLSRPFQNQTHAKRAYRELVLLKCVNHKNIISLLNVFTPQKTLEEFQDVYLVMELMDANLCQVIHMELDHERMSYLLYQMLCGIKHLHSAGIIHRDLKPSNIVVKSDCTLKILDFGLARTACTNFMMTPYVVTRYYRAPEVILGMGYKENVDIWSVGCIMGELVKGCVIFQGTDHIDQWNKVIEQLGTPSAEFMKKLQPTVRNYVENRPKYPGIKFEELFPDWIFPSESERDKIKTSQARDLLSKMLVIDPDKRISVDEALRHPYITVWYDPAEAEAPPPQIYDAQLEEREHAIEEWKELIYKEVMDWEERSKNGVVKDQPSDAAVSSNATPSQSSSINDISSMSTEQTLASDTDSSLDASTGPLEGCR",YES,–,–
"MAP2K4 p.A279T: MAP2K4 somatic driver mutant, observed in colorectal adenocarcinoma (protein, UniProt P45985 2-399, looked up, variant A279T) Dual specificity …: AAPSPSGGGGSGGGSGSGTPGPVGSPAPGHPAVSSMQGKRKALKLNFANPPFKSTARFTLNPNPTGVQNPHIERLRTHSIESSGKLKISPEQHWDFTAEDLKDLGEIGRGAYGSVNKMVHKPSGQIMAVKRIRSTVDEKEQKQLLMDLDVVMRSSDCPYIVQFYGALFREGDCWICMELMSTSFDKFYKYVYSVLDDVIPEEILGKITLATVKALNHLKENLKIIHRDIKPSNILLDRSGNIKLCDFGISGQLVDSIAKTRDAGCRPYMAPERIDPSTSRQGYDVRSDVWSLGITLYELATGRFPYPKWNSVFDQLTQVVKGDPPQLSNSEEREFSPSFINFVNLCLTKDESKRPKYKELLKHPFILMYEERAVEVACYVCKILDQMPATPSSPMYVD",–,<1X,–
